Results as given in PMC5818423, “Molecular Evidence of Adenosine Deaminase Linking Adenosine A2A Receptor and CD26 Proteins” (Frontiers in Pharmacology, 2018).

Legend:
[1] = target: A2AR-Nluc-spacer (human adenosine A2A receptor fused to NanoLuc on the N-terminal end, with spacer) (human, UniProt P29274 1-412); assay: cell-based or functional assay
[2] = target: A2AR (human adenosine A2A receptor, non-fused) (human, UniProt P29274 1-412); assay: cell-based or functional assay
Chain of A2AR (human adenosine A2A receptor, non-fused) (P29274 whole entry, the tested form may be a part): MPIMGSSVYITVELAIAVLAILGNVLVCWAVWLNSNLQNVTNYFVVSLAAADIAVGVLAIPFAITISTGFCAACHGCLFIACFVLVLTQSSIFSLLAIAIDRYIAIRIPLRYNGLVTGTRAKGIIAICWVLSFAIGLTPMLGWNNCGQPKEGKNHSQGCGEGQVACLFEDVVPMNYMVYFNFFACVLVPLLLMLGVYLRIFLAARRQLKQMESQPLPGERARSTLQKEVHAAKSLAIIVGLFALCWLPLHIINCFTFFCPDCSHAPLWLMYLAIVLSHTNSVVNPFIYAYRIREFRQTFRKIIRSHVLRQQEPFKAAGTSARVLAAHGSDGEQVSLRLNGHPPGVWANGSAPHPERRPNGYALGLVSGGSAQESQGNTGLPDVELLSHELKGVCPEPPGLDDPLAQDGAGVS

Chain of A2AR-Nluc-spacer (human adenosine A2A receptor fused to NanoLuc on the N-terminal end, with spacer) (P29274 whole entry, the tested form may be a part): as above

B1: Bovine adenosine deaminase (ADA) (enzyme, UniProt P56658 1-363, looked up)
chain: MAQTPAFNKPKVELHVHLDGAIKPETILYYGRKRGIALPADTPEELQNIIGMDKPLSLPEFLAKFDYYMPAIAGCREAVKRIAYEFVEMKAKDGVVYVEVRYSPHLLANSKVEPIPWNQAEGDLTPDEVVSLVNQGLQEGERDFGVKVRSILCCMRHQPSWSSEVVELCKKYREQTVVAIDLAGDETIEGSSLFPGHVKAYAEAVKSGVHRTVHAGEVGSANVVKEAVDTLKTERLGHGYHTLEDATLYNRLRQENMHFEVCPWSSYLTGAWKPDTEHPVVRFKNDQVNYSLNTDDPLIFKSTLDTDYQMTKNEMGFTEEEFKRLNINAAKSSFLPEDEKKELLDLLYKAYGMPSPASAEQCL
With B1 the “EC50: concentration of ADA (0.1 ng/ml to 10 ug/ml) providing half-maximal increase in binding of 2.2 nM [3H]ZM 241385 to membranes of transfected HEK-293T cells” value [1] was 14 ng/mL and the “EC50: concentration of ADA (0.1 ng/ml to 10 ug/ml) providing half-maximal increase in binding of 2.2 nM [3H]ZM 241385 to membranes of transfected HEK-293T cells” value [2] was 4 ng/mL.
